Laboratory results from patent US20060223059A1.
Read-outs that look alike come from different tables or passages of the source.

Columns and labels:
[1] = tested on: T1, Boc-V-P-R-AMC
T1 sequence: VPR

[2] = tested on: T2, Boc-A-A-P-F-AMC
T2 sequence: AAPF

[3] = biological target: T3, Boc-A-A-P-F-AMC
T3 chain: AAPF

[4] = biological target: T4, Boc-V-P-R-AMC
T4 chain: VPR

## trypsin
[1]
  hydrolysis of the fluorogenic peptide (release of AMC, arbitrary fluorescence counts): Fluorescence counts increased, in a dose-dependent manner, with increased concentrations of each enzyme
  kinetic analysis, fluorescence counts at 30 sec intervals for 15 min: kallikrein 14- and trypsin-mediated hydrolysis of V-P-R-AMC increases over time

## chymotrypsin
[2]
  hydrolysis of the fluorogenic peptide (release of AMC, arbitrary fluorescence counts): Chymotrypsin, as expected, effectively cleaved the peptide substrate in a dose-dependent fashion
  kinetic analysis, fluorescence counts at 30 sec intervals for 15 min: Chymotrypsin activity increases with increasing concentrations and over time

B1: recombinant hK14^myc-His (protein)
chain: EAEFIIGGHTCTRSSQPWQAALLAGPRRRFLCGGALLSGQWVITAAHCGRPILQVALGKHNLRRWEATQQVLRVVRQVTHPNYNSRTHDNDLMLLQLQQPARIGRAVRPIEVTQACASPGTSCRVSGWGTISSPIARYPASLQCVNINISPDEVCQKAYPRTITPGMVCAGVPQGGKDSCQGDSGGPLVCRGQLQGLVSWGMERCALPGYPGVYTNLCKYRSWIEETMRDK
[3]
  hydrolysis of the fluorogenic peptide (release of AMC, arbitrary fluorescence counts): neither recombinant kallikrein 14 nor kallikrein 14^myc-His hydrolyzed the peptide at any of the concentrations used
[4]
  hydrolysis of the fluorogenic peptide (release of AMC, arbitrary fluorescence counts): kallikrein 14^myc-His was not able to hydrolyze V-P-R-AMC to a significant extent and is not considered to be active

B2: recombinant kallikrein 14 (without c-myc/His epitopes) (protein)
chain: IIGGHTCTRSSQPWQAALLAGPRRRFLCGGALLSGQWVITAAHCGRPILQVALGKHNLRRWEATQQVLRVVRQVTHPNYNSRTHDNDLMLLQLQQPARIGRAVRPIEVTQACASPGTSCRVSGWGTISSPIARYPASLQCVNINISPDEVCQKAYPRTITPGMVCAGVPQGGKDSCQGDSGGPLVCRGQLQGLVSWGMERCALPGYPGVYTNLCKYRSWIEETMRDK
[3]
  hydrolysis of the fluorogenic peptide (release of AMC, arbitrary fluorescence counts): neither recombinant kallikrein 14 nor kallikrein 14^myc-His hydrolyzed the peptide at any of the concentrations used
  kinetic analysis, fluorescence counts at 30 sec intervals for 15 min: kallikrein 14 produces only background fluorescence counts (identical to the negative control containing substrate only) at all concentrations throughout the experiment
[4]
  hydrolysis of the fluorogenic peptide (release of AMC, arbitrary fluorescence counts): recombinant kallikrein 14 is able to effectively cleave the trypsin substrate, V-P-R-AMC (SEQ ID NO. 30) at a similar efficiency as trypsin, the positive control
  kinetic analysis, fluorescence counts at 30 sec intervals for 15 min: kallikrein 14- and trypsin-mediated hydrolysis of V-P-R-AMC increases over time
